Source: patent publication US20060121022A1 (Chugai, published 2006)
Residue numbers refer to the chain shown, from its start. One block for each molecule: values may come before it.

Assays:
[1] = target: T1, recombinant PCI (with Flag tag) (UniProt P05154)
T1 sequence: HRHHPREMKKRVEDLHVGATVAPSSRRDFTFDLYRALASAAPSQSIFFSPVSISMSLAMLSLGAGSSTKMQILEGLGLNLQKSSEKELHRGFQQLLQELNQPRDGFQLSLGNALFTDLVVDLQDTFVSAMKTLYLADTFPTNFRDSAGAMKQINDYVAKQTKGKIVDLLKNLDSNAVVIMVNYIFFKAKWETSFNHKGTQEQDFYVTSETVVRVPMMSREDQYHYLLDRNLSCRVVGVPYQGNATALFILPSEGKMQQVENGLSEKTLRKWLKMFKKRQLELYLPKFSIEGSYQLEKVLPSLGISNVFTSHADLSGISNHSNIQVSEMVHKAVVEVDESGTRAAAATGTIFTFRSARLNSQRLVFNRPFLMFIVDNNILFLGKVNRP

[2] = target: activated protein C (aPC; protein C from human plasma, activated, SIGMA P-2200) (human, UniProt P04070 43-461); assay: cell-based or functional assay
activated protein C (aPC; protein C from human plasma, activated, SIGMA P-2200), sequence (P04070 43-461): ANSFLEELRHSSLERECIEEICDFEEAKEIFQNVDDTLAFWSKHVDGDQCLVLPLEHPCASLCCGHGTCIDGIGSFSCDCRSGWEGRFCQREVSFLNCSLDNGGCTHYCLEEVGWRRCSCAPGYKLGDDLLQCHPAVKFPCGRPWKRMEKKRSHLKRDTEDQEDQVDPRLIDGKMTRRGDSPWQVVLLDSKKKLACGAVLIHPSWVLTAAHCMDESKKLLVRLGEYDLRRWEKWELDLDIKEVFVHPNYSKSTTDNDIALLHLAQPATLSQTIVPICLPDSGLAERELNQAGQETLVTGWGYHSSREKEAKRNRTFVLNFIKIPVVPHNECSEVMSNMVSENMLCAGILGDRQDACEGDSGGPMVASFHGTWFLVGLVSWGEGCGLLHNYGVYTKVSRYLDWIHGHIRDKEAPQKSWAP

…ON SUPPRESSION RATE (%), EXPERIMENT 1 (APTT coagulation time, human plasma) [2]: 33.8% | …ON SUPPRESSION RATE (%), EXPERIMENT 2 (APTT coagulation time, human plasma) [2]: 21.6%
B1: anti-aPC antibody aPC#281 (hybridoma well No. 281) (antibody, IgG1, V domains shown)
VH: QIQLVQSGPELEKPGETVRISCKASGYTFTDYSLHWVKQAPGKGLKWMGWINTETGEPTYADDLKGRFAFSLETSATTAYLQINNLKNEDTATYFCARGITLDYWGQGTSLTVSS
VL: DNVMSQSPSSLAVSVGEKVTMSCKSSQSLLSSSNQKNFLAWYQQKPGQSPKLLISWASTRHSGVPDRFTGSGSGTDFTLTISSVNAEDLAVYYCQQYYRYPLTFGAGTKLELK

…ON SUPPRESSION RATE (%), EXPERIMENT 1 (APTT coagulation time, human plasma) [2]: 23.4% | …ON SUPPRESSION RATE (%), EXPERIMENT 2 (APTT coagulation time, human plasma) [2]: 20.7%
B3: anti-aPC antibody aPC#123 (hybridoma well No. 123) (antibody, IgG2b, V domains shown)
VH: QVQLQQSGPELVKPGASVKISCKASGYAFSSSWMNWVKQRPGQGLEWIGRIYPGDGDTNYNGKFRGKATLTADKSSSTAYMQLTSLTSVDSAVYFCARWGITTAAWFAYWGQGTLVTVSA
VL: DIQMTQSPASLSASVGETVTITCRTSENIYSYLAWYQQKQGKSPQLLVNNAKTLAEGVPSRFSGSGSGTQFSLKINSLQPEDFGTYYCQHYYGTPPTFGGGTKLEIK

…ON SUPPRESSION RATE (%), EXPERIMENT 1 (APTT coagulation time, human plasma) [2]: 24.5% | …ON SUPPRESSION RATE (%), EXPERIMENT 2 (APTT coagulation time, human plasma) [2]: 28.2%
B4: anti-aPC antibody aPC#285 (hybridoma well No. 285) (antibody, IgG1, V domains shown)
VH: QVQLQQSGSEVVKPGASVKISCKASGYAFSRSWMNWVKQRPGQGLEWIGRIYPGDGDSIYNGKFKGKATLTADKSSTTAYMHLNSLTSVDSAVYFCARWGSSGSSWFAYWGQGTLVTVSA
VL: B3 VL with V15M, Q37R, N49Y, K74R, T85S, Y87F, T94S, P96Y

Continued, molecule first:

Molecule: activated protein C (aPC; protein C from human plasma, activated, SIGMA P-2200)
absorbance (at 405 nm), substrate S-2366; CONTROL (aPC with PCI, no antibody), AVERAGE (absorbance at 405 nm) [1]: 0.262 | absorbance (at 405 nm), substrate S-2366; CONTROL (aPC with PCI, no antibody), first replicate (absorbance at 405 nm) [1]: 0.278 | absorbance (at 405 nm), substrate S-2366; CONTROL (aPC with PCI, no antibody), second replicate (absorbance at 405 nm) [1]: 0.245

B2: anti-aPC antibody aPC#79 (hybridoma well No. 79) (antibody, IgG2b, V domains shown)
VH: QVQLQQSGAELARPGASVKLSCKASGYTFTDSYMNWVKQRTGQGLEWIGEVYPETGNSYYNEKFKGKATLTADRSSKTAYMQLNSLTSEDSAVYFCTRGGTGFDYWGQGTTLTVSS
VL: QIVLAQSPAIMSASLGERVTMTCTASSSVSSSYLHWYQQKPGSSPKAWIYSTSNLASGAPTRFSGSGSGTSYSLTISSMEAEDAATYYCHQYHRSPFTFGSGTKLEIK
…ON SUPPRESSION RATE (%), EXPERIMENT 1 (APTT coagulation time, human plasma) [2]: 88% | …ON SUPPRESSION RATE (%), EXPERIMENT 2 (APTT coagulation time, human plasma) [2]: 68.3%
